{"source": "patent US20160327558A1", "key": {"[1]": {"biological_target": "active endogenous MALT1 (stimulated Jurkat T cells, stimulated primary human PBMCs and T cells, ABC DLBCL cells) (human) (UniProt Q9UDY8)", "experiment": "probe 7 pulldown with streptavidin beads; supernatant tested with probe 6"}, "[2]": {"biological_target": "active endogenous MALT1 (stimulated Jurkat T cells, stimulated primary human PBMCs and T cells, ABC DLBCL cells) (human) (UniProt Q9UDY8)", "experiment": "ELISA-type assay on streptavidin-coated plates, 2×10^6 Jurkat T cells"}}, "note": "Primed or numbered codes have the meaning given here. The star is where a group is joined. AOMK(3) = acyloxymethyl ketone at C-terminal Arg; Biotin = O=C1N[C@H]2[C@H](CS[C@H]2CCCCC(=O)*)N1", "data": [{"binder": "Ac-K(Biotin)LRSR-{AOMK(3)}", "note": "[probe 7 (biotin-coupled; Ac-Lys(biotin)-LRSR-AOMK)]", "values": [{"measurement": "probe concentration sufficient to completely remove active MALT1 from the extracts", "setting": "[1]", "value": 100, "unit": "nM"}, {"measurement": "probe concentration sufficient to obtain a robust increase in active MALT1", "setting": "[2]", "value": "< 10", "unit": "nM"}]}]}
